These results are taken from paper PMC3883677, “The Quaternary Structure of the Recombinant Bovine Odorant-Binding Protein Is Modulated by Chemical Denaturants” (PLoS ONE, 2014).

The data set concerns the molecule itself. Briefly: SEC; Superdex-75 PC 3.2/30, calibrated with mass standards; 20 mM Na-phosphate pH 7.8, no GdnHCl; protein 0.1-0.2 mg/ml; monomer to dimer. Background: In gel filtration, larger molecules generally elute earlier.

B1: recombinant bovine odorant-binding protein (natural protein)
chain: AQEEEAEQNLSELSGPWRTVYIGSTNPEKIQENGPFRTYFRELVFDDEKGTVDFYFSVKRDGKWKNVHVKATKQDDGTYVADYEGQNVFKIVSLSRTHLVAHNINVDKHGQTTELTELFVKLNVEDEDLEKFWKLTEDKGIDKKNVVNFLENEDHPHPE
notes: PDB 1OBP is the cited crystal structure of the native tissue-extracted bOBP dimer (domain-swapped); also called bOBP; recombinant bOBP; source: E. coli BL21(DE3), plasmid pT7-7-bOBP, purified (Ni-agarose, HisGraviTrap)
By stoichiometry N is commonly meant a count of units in the complex or per binding partner. Consider B1, for which the “stoichiometry N” value is 2.
